# Assay: soluble on expression in E. coli; label from the status in PepcDB or PDB records
row,Sequence,soluble on expression in E. coli
1,MLDLLVVAPHPDDGELGCGGTLARAKAEGLSTGILDLTRGEMGSKGTPEEREKEVAEASRILGLDFRGNLGFPDGGLADVPEQRLKLAQALRRLRPRVVFAPLEADRHPDHTAASRLAVAAVHLAGLRKAPLEGEPFRVERLFFYPGNHPFAPSFLVKISAFIDQWEAAVLAYRSQFTGEAASETVGPKGVEARKAMRRYWGNYLGVDYAEPFVSPLPVLYVPWSRA,soluble
2,MRVIFMRQVTKSKKIKILPYPEWLVKAGMSKGIDHDRQHLGIILAAGEMIKVRQVNAEYKEKLKLYLLNDNKNTQRSISFNTDWIELSVDAISVPFINTPYSDGIIPEIVFEYPDTSKLLPVYEKGEDESIFFESWDKQNAEFGVVESEYVIILIPEVSKDRLKSFSTSGGIDTVLGFYQDIFSFNNSLAGLSFEPQRYSDGNTRNRYFAKADKGGGGAAYYSNNWIASSSGSINTFWLSPNATNWGCLHEIAHGYQGGFIDDKYFSTREVWNNIYAACYQDVMLGAEKFNKGWLYNFGKQKEVEKSILNNINNGKEVNAWGERSKLYFIMLMLEKAGVNCFTHFNQIYRERKNTDQSVGSVLDMLSNSFATVENRVDVTLFLQMVGGHISKNQYQRNLFSHAKAVYPLNQLLQGDELTAVKKTLDLNSELSLVDVDSIEFTDIKSNLTLQFSIDDFAQIYGEELLILNGDNYVYNQSIMDKKQTLYNLPVGAYTLRIPTGRNKKYAPQINYLIVKNEDSQTQVDFVHRIGSPIVSQKISLQGLNDYTFATIFFDQENDTVSVDITKTKPHYHFPGMYARIRIKDKDNNELLNEVITGTNQSLSKNDFPLSSCYVIDIFHKEPGRVKLTPAYKGVIDNKSSYNEFIITPYGLQNIKLNNDPKVFLLENIKSAAEMLRSHPIMWHANFSEAKDNIYLAIDIFPSPQKEGLLEQYADCISSYYEKPNEDLGNAFSFIFKGINDREFLTTKLNLVTKKLEVKIVSGTPHSGFKRTYAVLRYFNADGNELLNLDIIGSKKQAGQEWVFPISGYGGEKLYLQHVEPKNRLVITNIMQGIRLSSRTSIQTYEIESLGLSRCT,not soluble
3,MDYFPVISVDLQSGRRVVSVEYFRGDGPPRIPYSMVGPCCVFLMHHRPSHEVRLRFSDFYNVGEFPYRVGLGDFASNVAPPPAKPFQRLIDLIGHMTLSDFTRFPNLKEAISWPLGEPSLAFFDLSSTRVHRNDDIRRDQIATLAMRSCKITNDLEDSFVGLHRMIATEAILRGIDLCLLPGFDLMYEVAHVQCVRLLQAAKEDISNAVVPNSALIVLMEESLMLRSSLPSMMGRNNWIPVIPPIPDVEMESEEESDDDGFVEVD,not soluble
4,MGSDKIHHHHHHMATETLTKSDAITQSLRAAVDRNFNDQVAFLQRMVQFRSVRGEEAPQQEWLAQQFADRGYKVDTFSLADVDIASHPKAAPMDTIDPAGSMQVVATADSDGKGRSLILQGHIDVVPEGPVDLWSDPPYEAKVRDGWMIGRGAQDMKGGVSAMIFALDAIRTAGYAPDARVHVQTVTEEESTGNGALSTLMRGYRADACLIPEPTGHTLTRAQVGAVWFRLRVRGTPVHVAYSETGTSAILSAMHLIRAFEEYTKELNAQAVRDPWFGQVKNPIKFNVGIIKGGDWASSTAAWCELDCRLGLLTGDTPQEAMRGIEKCLADAQATDSFLSENPAELVWSGFQADPAVCEPGGVAEDVLTAAHKAAFNAPLDARLSTAVNDTRYYSVDYGIPALCYGPYGQGPHAFDERIDLESLRKTTLSIALFVAEWCGLRKL,not soluble
5,MGSDKIHHHHHHMNADIKISFIDNIDKISASDWQNLNNSPCPFLRYNFFNALEKSESASAKQGWQAHHLVATNNNDVTAVMPMYLKSHSWGEYVFDWDWADAFKRNDIDYYPKLVATIPFTPVSSDKLLTSQGHVNELFEPLIEHCQQENINSWHILYCNEIRTALPEDVYQRNTVQFHWFNRDYETFDDFLNTFTSRKRKNTRKERLSIIEQEIDIRQLKNNEISQQDLEFFYLTYQLTYLKRGHQPHLSYEFFKQIVADMADNILLIIASHEQEDIACALFFYDDSQLYGRYWGCTKHYNNLHFELCYYRGIEFCIQNKLQSFNPGTQGEHKIQRGFEPVLTYSYHWVKHVPFRMAIKNFCQQEQQHMLTYQEQCQQVLPFRKI,not soluble
6,MERVASVLSALKPTLEKHQLGSWKPAEVDRLCAMLREYGKQERRDKCGTSCLDGAATALASLPSSSSVPPSLPSGGDDVEDENDADEEAFAGVVSEVDRCLSLVRDFLKRRMPFGAVVEPTLPAGTAERQAPQSSSADIISCKRARSLSGEPSSSAPTSNSVHSGAAVVEAPVYAVDAFLYAEGDIEKLVEAKKLAREYCCRCGSTDLGLVEFITHSFSQDQLVYLSCFLLPHLLDVVVASHEASRPLSIVDVGSRLGIVLWACAFALQRGLLAPAQAATTDAAADDAAPEVNLVGIELDATFVKISQDVARRFFAQRRRHAPKLVSVPQPAAANGVDAKLPDVSSSIQLLQSDCFEGAAASALSESSLVVMHNVFEYFCTTAVEHARCWLKLRRLVHRSGQFLVCSPALEVTLGTFTDEVWLQAWQLENGNDARGASTPLAWLASYVEPFDTADVASDFLTMRTLSCEGCDAGSDGDKHHEDHHGRSRDHHHHSSEDDEGDGEEASEMAEQIQRIYVYCVK,not soluble
7,MKQAIGFIDSGVGGLTVVREVLKQLPHEQVYYLGDTARCPYGPRDKEEVAKFTWEMTNFLVDRGIKMLVIACNTATAAALYDIREKLDIPVIGVIQPGSRAALKATRNNKIGVLGTLGTVESMAYPTALKGLNRRVEVDSLACPKFVSVVESGEYKSAIAKKVVAESLLPLKSTKIDTVILGCTHYPLLKPIIENFMGDGVAVINSGEETASEVSALLDYHNLLDATDEEIEHRFFTTGSTQIFKDIAKDWLNMPDMTVEHIKLGK,not soluble
8,MAESMQSKPSFEYPKRAAIGSYWSNRNRDEKHFKNLGPASLSSASAGKVMQWMLSHTCNGVPKPKGGYDAFGKIWYAPCNMAESVAQWRASMSNDEAQPAKNRVYWIGHSSQLLCLSNGINILFDPIFSQRASPLSFAGPSRRFPPAATAAQLPPIHIVTVSHNHYDHMDKQSIKAVAARFPDAHFVVPLKLDRFLREWGVPGASITTLDWYEACEVKGVRVGCTPAQHWGKHSAFDDNEVLWCGWCVGWQPGQQQQPASTCEKPTLISFSGIEPSSEALVEAQRTWNRYKKYFFAGDTAYNPDVSTSIYAHFGPMDMAALPIGAYSPRWFMARAHIDPEHAVQIFKDQHIQQAVAVHWGTFELADEPLDEPPQVLRKTLKDASIDENRFQIIPMGKFIEF,soluble
9,MDMTDMTTTGSATEAATAAASSTPLPTFGQSLTEQLTPILGDAETQQLASLIAHLPTIKGQTDEQSIALYVDTLTQLKEKNSVFSGAALSESASIWMRSLQRVSSNGKMDSAELATQMNNALASQFQTWFADQLTDKVDSSLPTQFVSQFQLGTESTQAQQIAKLSAEELKSATGDIASFVDDLARQMSSSVVRESASSFLRNAFAHLPSMNLAQLKASDFLLTEANFVTNVSTQLQNVFKQIGITLTKDVADELAKRITWTPGISKQQLSEVLSEMATQVKGQFTAAYGETAGTENLRKALDAIIKSSDSLTLSSLFANFAVSLIHTEIDAFYNDKAIADIQKTQISADQAELIKNNTERDIRFQFEKMLKGESTGASFIERYETLRKNL,not soluble
10,SSLLDGLASSPRAPLQSSKARMKKLPKKSQNEKYRLKYLRLRKAAKATVFENAAICDEIARLEEKFLKAKEERRYLLKKLLQLQALTEGEVQAAAPSHSSSLPLTYGVASSVGTIQGAGPISGPSTGAEEPFGKKTKKEKKEKGKENNKLEVLKKTCKKKKMAGGARKLVQPIALDPSGRPVFPIGLGGLTVYSLGEIITDRPGFHDESAIYPVGYCSTRIYASMKCPDQKCLYTCQIKDGGVQPQFEIVPEDDPQNAIVSSSADACHAELLRTISTTMGKLMPNLLPAGADFFGFSHPAIHNLIQSCPGARKCINYQWVKFDVCKPGDGQLPEGLPENDAAMSFEAFQRQIFDEDQNDPLLPGSLDLPELQPAAFVSSYQPMYLTHEPLVDTHLQHLKSPSQGSPIQSSD,soluble
11,MGHHHHHHSHMASLAVSNWPKPMPLIPCLSWSTASGVFTTGVLSKPINWRELEKQYYTQTVYEEEIIHMLEYCGTDSFKMGQEFVKHFTSSADKLTNLNLVSRTLNLDISNQVVSQKPADCHNSSKTSVSATSEGLLLQDTSKMKRFNQTLSTNKSGYTSRNPQSYHLLSKEQSRNSLRKESLIFMKGVMDECTHVANFSVPVDPSLIIVVQAKEDAYIPRTGVRSLQEIWPGCEIRYLEGGHISAYLFKQGLFR,soluble
12,LNKELQHERLAYITDSELIIFADFLPTEFVDEYLIDQSEESVAHIQQALSYEDNKVGRYAEPHFLVANPKNSVGGIKTELLKRGQSPVRLIIVRDVGGVIGTIEPQILLLHENHTKLTDLTVVTPILEDIQTIQSVSKQVSIDGGAHWFPIMAGGKIMGVLSMATIAITLRELSLQAVVAENVRSEEDLFTPLTVATRLRAL,not soluble
13,MSNDRPLIFVDLDDTLFQTARKTPADIEKHVATLDISGNANGYMTNVQKSFAHWLLAHADVVPVTARSVEAYSRVKLPFTAGAICSHGGVMLDVMGRLDPDWNEQMKQTLASYQSRLHELSAATLAIGQEMGFSLRGWVVEEAQLFHYVVTKHNESDDSILTKVLAEMQARGLLDGMHIHGNGNNLAFLPEGLAKRYAVQEWLRRDLAINGERPVLGFGDSITDLGFMDECHWWATPARSQLAKMFVGAAHE,not soluble
14,MKYQQLENLESGWKWKYLVKKHREGELITRYVEASAAQEAVNLLLALENEPVRVNVWIDRHMNPALLNRMKQTIRARRKRHFNAEHQHTRKKSIDLEFMVWQRLAGLAQRRGKTLSETIVQLIEDAEHKEKYATQMTTLKQDLQALLGKK,not soluble
15,MPDEATKGSATIPPSSSTPFWWREKRSPKVQYHRSAYPRSRSSDADCRQGNEGMNFIAKHFFEYQSFMNIPHKAVHLHKVPASQAGTDPSMGWAPKNMLKAGKHQPAPGARANRVHRDPRPNGTKYGRAGKHEHREWGDRHGELRDEKVACHKDAWTKFLANDDQGARTAFECDFEDRVLATEEETLQEKLCRTSPEAMNLNALYAAANKAVSCGGDVCELLTILTYAPTVQFVTTTVKKAKALPYNNAPFARIMLFEGRRLMEQKQTTVNPSLVHKSSVDGSKPSSSSASTSSNDNPSDVSFSESFLFHVPPTKLDRSHIVIELYDHDDEGGLQKIGHCVIGRLVDGTGNAHWIQMVRQHGLPVCMWHKIGHN,not soluble
16,SKVFNLDRGNTLSVSLFSGVTNSKELLNSMLDGSLKLEVSFLNASLIPGIFPLLAAAQKALISKSRDSLSTRTLHSELVYNYSGSKHITESLKRCGISENTTYILAARFNASPVEMEEVAKLINGKEIDLEELKTHANQANILKHYKITSQELGISSLGDAIVCRIAARDAL,soluble
17,MGKKQHQKDKLYLTTSEWKSIGGHKDDTGTRLQRAQFKRLPINHCSLSLLPFEDPVCARSGEIFDLTAIVPYLKKHGKNPCTGKPLVAKDLIHLKFDKGEDGKFRCPVTFRTFTDHSHILAIATSGNVYSHEAVQELNLKRNHLKDLLTDVPFTRADIIDLQDPNHLEKFNMEQFLHVKLDLKTSEEIKKEKDAMKDPKFYIRRMNNACKSVLDQLDKEYVPKKSSTETDETADEINAAHYSQGKVAAGFTSTVMAPVTSNKAAVLDNDTVRYSRVKKNAFVRLVTNFGPLNLELFAPKVPKACENFITHCSNGYYNNTKFHRLIKNFMLQGGDPTGTGHGGESIWDKPFSDEFISGFSHDARGVLSMANKGSNTNGSQFFITFRPCKYLDRKHTIFGRLVGGQDTLTTIEKLETEEGTDVPMVSVVIMRAEVFVDPFEEAEKEVQAERAEILKKTSKDAASLANKKAKETATKPEAVGTGVGKYMKSAAAVNKRQGKMEDVPLEAAKKTKFARAGLGDFSKW,not soluble
18,MSLGQFSISEVGHFYIAANTSLKHIHVTCAIIERDGLVLAAQRSAVMSLPLKWEFPGGKIDPGESPEECLRRELVEEMAVHVRVGQSLPVSTHQYPTFSVTLYPFLCTIESGEIVLHEHVAVTWLPPDELHTLDWAEADLPVIKSYQQGCRMRDHEGHHHHHH,not soluble

# Source: the DeepSol protein solubility set
